Substitutions are numbered along the chain they refer to. In names and notes the source's numbering stands.
B1: NPM1(7–117) (domain or fragment, UniProt P06748 7-117, looked up)
chain: MDMSPLRPQNYLFGCELKADKDYHFKVDNDENEHQLSLRTVSLGAGAKDELHIVEAEAMNYEGSPIKVTLATLKMSVQPTVSLGGFEITPPVVLRLKCGSGPVHISGQHLV
B2: NPM1(7–117)-K32A (domain or fragment, UniProt P06748 7-117, looked up)
chain: B1 chain with K26A
B3: NPM1(7–117)-Y67H (domain or fragment, UniProt P06748 7-117, looked up)
chain: B1 chain with Y61H
B4: NPM1(7–117)-Y67F (domain or fragment, UniProt P06748 7-117, looked up)
chain: B1 chain with Y61F
B5: NPM1(1–188) (domain or fragment, UniProt P06748 1-188, looked up)
chain: MEDSMDMDMSPLRPQNYLFGCELKADKDYHFKVDNDENEHQLSLRTVSLGAGAKDELHIVEAEAMNYEGSPIKVTLATLKMSVQPTVSLGGFEITPPVVLRLKCGSGPVHISGQHLVAVEEDAESEDEEEEDVKLLSISGKRSAPGGGSKVPQKKVKLAADEDDDDDDEEDDDEDDDDDDFDDEEAEE
B6: NPM1(1–130) (domain or fragment, UniProt P06748 1-130, looked up)
chain: MEDSMDMDMSPLRPQNYLFGCELKADKDYHFKVDNDENEHQLSLRTVSLGAGAKDELHIVEAEAMNYEGSPIKVTLATLKMSVQPTVSLGGFEITPPVVLRLKCGSGPVHISGQHLVAVEEDAESEDEEE
B7: NPM1(1–117) (domain or fragment, UniProt P06748 1-117, looked up)
chain: MEDSMDMDMSPLRPQNYLFGCELKADKDYHFKVDNDENEHQLSLRTVSLGAGAKDELHIVEAEAMNYEGSPIKVTLATLKMSVQPTVSLGGFEITPPVVLRLKCGSGPVHISGQHLV
B8: NPM1(1–160) (domain or fragment, UniProt P06748 1-160, looked up)
chain: MEDSMDMDMSPLRPQNYLFGCELKADKDYHFKVDNDENEHQLSLRTVSLGAGAKDELHIVEAEAMNYEGSPIKVTLATLKMSVQPTVSLGGFEITPPVVLRLKCGSGPVHISGQHLVAVEEDAESEDEEEEDVKLLSISGKRSAPGGGSKVPQKKVKLAA
B9: NPM1(1–140) (domain or fragment, UniProt P06748 1-140, looked up)
chain: MEDSMDMDMSPLRPQNYLFGCELKADKDYHFKVDNDENEHQLSLRTVSLGAGAKDELHIVEAEAMNYEGSPIKVTLATLKMSVQPTVSLGGFEITPPVVLRLKCGSGPVHISGQHLVAVEEDAESEDEEEEDVKLLSISG
B10: NPM1(1–150) (domain or fragment, UniProt P06748 1-150, looked up)
chain: MEDSMDMDMSPLRPQNYLFGCELKADKDYHFKVDNDENEHQLSLRTVSLGAGAKDELHIVEAEAMNYEGSPIKVTLATLKMSVQPTVSLGGFEITPPVVLRLKCGSGPVHISGQHLVAVEEDAESEDEEEEDVKLLSISGKRSAPGGGSK
B11: NPM1-236A (natural protein, UniProt P06748 1-294, looked up)
chain: MAASMAMDMSPLRPQNYLFGCELKADKDYHFKVDNDENEHQLSLRTVSLGAGAKDELHIVEAEAMNYEGSPIKVTLATLKMSVQPTVSLGGFEITPPVVLRLKCGSGPVHISGQHLVAVEEDAESEDEEEEDVKLLSISGKRSAPGGGSKVPQKKVKLAADEDDDDDDEEDDDEDDDDDDFDDEEAEEKAPVKKSIRDTPAKNAQKSNQNGKDSKPSSTPRSKGQESFKKQEKTPKTPKGPSSVEDIKAKMQASIEKGGSLPKVEAKFINYVKNCFRMTDQEAIQDLWQWRKSL
B12: NPM1-234567A (natural protein, UniProt P06748 1-294, looked up)
chain: B11 chain with S4A, M5A, M7A
B13: NPM1-T4sD (natural protein, UniProt P06748 1-294, looked up)
chain: B11 chain with A2E, A3D, A6D, T199D, T219D, T234D, T237D

Molecular target: the molecule itself
Assay: SDS-resistant oligomer detection by SDS-PAGE

Binding result, binds:
B1
B2
B3
B4

Molecular target: the molecule itself
Assay: SDS-resistant oligomer detection by SDS-PAGE
Remark: another data set of the same source

Binding result, binds:
B5
B6
B7
B8
B9
B10

Molecular target: the molecule itself
Assay: SDS-resistant oligomer detection by SDS-PAGE
Remark: another data set of the same source

Binding result, binds:
B11
B12

Molecular target: the molecule itself
Assay: SDS-resistant oligomer detection by SDS-PAGE
Remark: another data set of the same source

Binding result, binds:
B13

Reference: publication doi:10.1101/2023.01.23.525122 (bioRxiv, 2023)
